# B1: Pep22 (designed binder)
# peptide: WSGENGPGTFYDYEA
# B2: Pep11 (designed binder)
# peptide: WSGENGPGFYDYEA
# B3: Pep6 (designed binder)
# peptide: WSGENGPGYFDYEA
# Target: EGFR recombinant human protein (human) (UniProt P00533)
# Experiment: SPR; EGFR (20 µg/mL) or BSA (20 µg/mL) covalently attached (EDC/NHS) to a carboxymethylated dextran chip; peptides injected as analytes at 15 µL/min; 25 °C; PBS with 0.01% Tween 20, pH 7.4; global fit, 1:1 Langmuir model with mass transport; KD from koff/kon
row,Kd [nM],Binder
1,595,B1
2,252,B2
3,4800,B3
